T1: SCD1, released from the linker-cleaved SCD1-cyt b5 fusions (mouse, UniProt P13516 1-355)
T1 construct: stearoyl-CoA desaturase-1 (SCD1), mouse, UniProt P13516; stands for the SCD1 chain of the fusion with full-length cyt b5 (wild type and TM mutants) and of the fusion with the soluble domain of cyt b5; the GFP tag stood at the C-terminus of the fusion; surmised: ENLYFQ is left at the C-terminus after cleavage
T1 sequence (looked up): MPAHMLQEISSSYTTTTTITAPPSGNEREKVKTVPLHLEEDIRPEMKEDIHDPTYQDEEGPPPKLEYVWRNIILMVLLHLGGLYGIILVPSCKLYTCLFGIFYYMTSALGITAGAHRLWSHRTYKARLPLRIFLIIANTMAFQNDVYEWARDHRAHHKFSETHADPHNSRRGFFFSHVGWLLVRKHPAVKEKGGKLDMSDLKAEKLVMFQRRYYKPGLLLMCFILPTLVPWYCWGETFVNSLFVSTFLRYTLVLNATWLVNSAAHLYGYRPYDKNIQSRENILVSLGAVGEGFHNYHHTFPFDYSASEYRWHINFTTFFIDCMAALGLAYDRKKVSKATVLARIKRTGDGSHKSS

T2: full-length b5R, released from the linker-cleaved cyt b5-b5R fusion (mouse, UniProt Q9DCN2 1-301)
T2 construct: surmised: cleavage of the linker ENLYFQ/G leaves a G at the N-terminus; no extra residue after the C-terminus of b5R
T2 sequence (looked up): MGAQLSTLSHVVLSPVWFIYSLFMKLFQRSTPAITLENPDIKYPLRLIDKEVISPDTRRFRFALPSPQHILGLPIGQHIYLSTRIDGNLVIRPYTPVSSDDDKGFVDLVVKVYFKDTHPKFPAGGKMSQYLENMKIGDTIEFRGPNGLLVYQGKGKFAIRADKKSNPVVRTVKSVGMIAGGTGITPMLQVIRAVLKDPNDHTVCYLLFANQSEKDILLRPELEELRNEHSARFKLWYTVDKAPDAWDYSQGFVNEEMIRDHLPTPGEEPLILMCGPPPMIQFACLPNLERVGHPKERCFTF


Key:
[1] = molecular target: T1, SCD1, released from the linker-cleaved …; experiment: SEC; TM mutants in the linker-cleavable fusions, purified and cleaved by TEV protease; SRE-10C SEC-300 (Sepax) on HPLC, FPLC buffer, 0.75 mL/min; heme absorbance (413 nm by the results, 423 nm by the methods) gives the ratio of heterodimer to monomeric cyt b5; conditions: both partners purified
[2] = molecular target: T2, full-length b5R, released from the …; experiment: as above; conditions: both partners purified

Binder | percent dissociation of the complex [1] | binding result [2] | other results
cyt b5 A122W, released from the linker-cleaved SCD1-cyt b5-TEV chimera (natural protein, mouse, UniProt P56395 1-134, looked up, cytochrome b5, mouse, UniProt P56395; as m11 with the mutation; source: HEK 293S (BacMam), purified as a fusion with SCD1, cleaved by TEV protease; not shown: GFP, C-terminal, cleaved) MAGQSDKDVKYYTLEEIQKHKDSKSTWVILHHKVYDLTKFLEEHPGGEEVLREQAGGDATENFEDVGHSTDARELSKTYIIGELHPDDRSKIAKPSDTLITTVESNSSWWTNWVIPAISALWVALMYRLYMAED | ~40% | – | –
cyt b5 V123W, released from the linker-cleaved cyt b5-b5R-TEV chimera (natural protein, mouse, UniProt P56395 1-134, looked up, cytochrome b5, mouse, UniProt P56395; as m6 with the mutation; source: High Five cells (Bac-to-Bac), purified as a fusion with b5R, cleaved by TEV protease) MAGQSDKDVKYYTLEEIQKHKDSKSTWVILHHKVYDLTKFLEEHPGGEEVLREQAGGDATENFEDVGHSTDARELSKTYIIGELHPDDRSKIAKPSDTLITTVESNSSWWTNWVIPAISALAWALMYRLYMAED | – | binds | –
cyt b5 R128A, released from the linker-cleaved cyt b5-b5R-TEV chimera (natural protein, mouse, UniProt P56395 1-134, looked up, cytochrome b5, mouse, UniProt P56395; as m6 with the mutation; source: High Five cells (Bac-to-Bac), purified as a fusion with b5R, cleaved by TEV protease) MAGQSDKDVKYYTLEEIQKHKDSKSTWVILHHKVYDLTKFLEEHPGGEEVLREQAGGDATENFEDVGHSTDARELSKTYIIGELHPDDRSKIAKPSDTLITTVESNSSWWTNWVIPAISALAVALMYALYMAED | – | – | percent dissociation of the complex [2]: ~40%
cyt b5 M126A, released from the linker-cleaved cyt b5-b5R-TEV chimera (natural protein, mouse, UniProt P56395 1-134, looked up, cytochrome b5, mouse, UniProt P56395; as m6 with the mutation; source: High Five cells (Bac-to-Bac), purified as a fusion with b5R, cleaved by TEV protease) MAGQSDKDVKYYTLEEIQKHKDSKSTWVILHHKVYDLTKFLEEHPGGEEVLREQAGGDATENFEDVGHSTDARELSKTYIIGELHPDDRSKIAKPSDTLITTVESNSSWWTNWVIPAISALAVALAYRLYMAED | – | binds | –
cyt b5 L125W, released from the linker-cleaved SCD1-cyt b5-TEV chimera (natural protein, mouse, UniProt P56395 1-134, looked up, cytochrome b5, mouse, UniProt P56395; as m11 with the mutation; source: HEK 293S (BacMam), purified as a fusion with SCD1, cleaved by TEV protease; not shown: GFP, C-terminal, cleaved) MAGQSDKDVKYYTLEEIQKHKDSKSTWVILHHKVYDLTKFLEEHPGGEEVLREQAGGDATENFEDVGHSTDARELSKTYIIGELHPDDRSKIAKPSDTLITTVESNSSWWTNWVIPAISALAVAWMYRLYMAED | ~40% | – | –
cyt b5 A124W, released from the linker-cleaved cyt b5-b5R-TEV chimera (natural protein, mouse, UniProt P56395 1-134, looked up, cytochrome b5, mouse, UniProt P56395; as m6 with the mutation; source: High Five cells (Bac-to-Bac), purified as a fusion with b5R, cleaved by TEV protease) MAGQSDKDVKYYTLEEIQKHKDSKSTWVILHHKVYDLTKFLEEHPGGEEVLREQAGGDATENFEDVGHSTDARELSKTYIIGELHPDDRSKIAKPSDTLITTVESNSSWWTNWVIPAISALAVWLMYRLYMAED | – | – | percent dissociation of the complex [2]: ~40%
cyt b5 L121W, released from the linker-cleaved SCD1-cyt b5-TEV chimera (natural protein, mouse, UniProt P56395 1-134, looked up, cytochrome b5, mouse, UniProt P56395; as m11 with the mutation; source: HEK 293S (BacMam), purified as a fusion with SCD1, cleaved by TEV protease; not shown: GFP, C-terminal, cleaved) MAGQSDKDVKYYTLEEIQKHKDSKSTWVILHHKVYDLTKFLEEHPGGEEVLREQAGGDATENFEDVGHSTDARELSKTYIIGELHPDDRSKIAKPSDTLITTVESNSSWWTNWVIPAISAWAVALMYRLYMAED | ~40% | – | –
cyt b5 M126A, released from the linker-cleaved SCD1-cyt b5-TEV chimera (natural protein, mouse, UniProt P56395 1-134, looked up, cytochrome b5, mouse, UniProt P56395; as m11 with the mutation; source: HEK 293S (BacMam), purified as a fusion with SCD1, cleaved by TEV protease; not shown: GFP, C-terminal, cleaved) MAGQSDKDVKYYTLEEIQKHKDSKSTWVILHHKVYDLTKFLEEHPGGEEVLREQAGGDATENFEDVGHSTDARELSKTYIIGELHPDDRSKIAKPSDTLITTVESNSSWWTNWVIPAISALAVALAYRLYMAED | ~50% | – | –
cyt b5 Y127A, released from the linker-cleaved SCD1-cyt b5-TEV chimera (natural protein, mouse, UniProt P56395 1-134, looked up, cytochrome b5, mouse, UniProt P56395; as m11 with the mutation; source: HEK 293S (BacMam), purified as a fusion with SCD1, cleaved by TEV protease; not shown: GFP, C-terminal, cleaved) MAGQSDKDVKYYTLEEIQKHKDSKSTWVILHHKVYDLTKFLEEHPGGEEVLREQAGGDATENFEDVGHSTDARELSKTYIIGELHPDDRSKIAKPSDTLITTVESNSSWWTNWVIPAISALAVALMARLYMAED | ~10% | – | –
cyt b5 A122W, released from the linker-cleaved cyt b5-b5R-TEV chimera (natural protein, mouse, UniProt P56395 1-134, looked up, cytochrome b5, mouse, UniProt P56395; as m6 with the mutation; source: High Five cells (Bac-to-Bac), purified as a fusion with b5R, cleaved by TEV protease) MAGQSDKDVKYYTLEEIQKHKDSKSTWVILHHKVYDLTKFLEEHPGGEEVLREQAGGDATENFEDVGHSTDARELSKTYIIGELHPDDRSKIAKPSDTLITTVESNSSWWTNWVIPAISALWVALMYRLYMAED | – | binds | –

Reference: article PMC9468158, “Transmembrane helices mediate the formation of a stable ternary complex of b5R, cyt b5, and SCD1” (Communications Biology, 2022)
